Like-named read-outs stand apart in the source and are kept apart here.
T1: human FcγRIIb (human, UniProt P31994)
T1 chain: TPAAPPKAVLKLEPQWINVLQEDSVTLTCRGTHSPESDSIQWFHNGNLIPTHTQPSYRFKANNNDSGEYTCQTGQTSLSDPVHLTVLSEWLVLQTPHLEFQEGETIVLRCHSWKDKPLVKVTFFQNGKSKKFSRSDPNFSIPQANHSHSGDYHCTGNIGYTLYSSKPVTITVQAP

T2: human FcγRIa (human, UniProt P12314)
T2 chain: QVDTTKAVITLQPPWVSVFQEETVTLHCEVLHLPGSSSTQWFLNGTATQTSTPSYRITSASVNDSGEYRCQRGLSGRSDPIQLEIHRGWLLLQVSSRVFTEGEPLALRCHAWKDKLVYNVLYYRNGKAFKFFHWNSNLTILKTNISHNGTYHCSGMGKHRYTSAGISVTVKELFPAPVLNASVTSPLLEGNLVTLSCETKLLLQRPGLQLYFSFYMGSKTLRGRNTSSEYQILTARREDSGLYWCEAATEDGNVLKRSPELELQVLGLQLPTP

T3: mouse FcγRI (mouse, UniProt P26151)
T3 chain: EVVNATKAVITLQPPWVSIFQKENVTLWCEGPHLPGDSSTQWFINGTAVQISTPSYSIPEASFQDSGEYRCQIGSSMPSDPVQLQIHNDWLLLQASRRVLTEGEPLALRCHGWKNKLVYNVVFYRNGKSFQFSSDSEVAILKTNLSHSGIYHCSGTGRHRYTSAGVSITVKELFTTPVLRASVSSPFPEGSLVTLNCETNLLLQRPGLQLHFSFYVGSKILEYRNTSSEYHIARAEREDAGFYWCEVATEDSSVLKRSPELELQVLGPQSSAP

T4: mouse FcγRIV (mouse, UniProt A0A0B4J1G0)
T4 chain: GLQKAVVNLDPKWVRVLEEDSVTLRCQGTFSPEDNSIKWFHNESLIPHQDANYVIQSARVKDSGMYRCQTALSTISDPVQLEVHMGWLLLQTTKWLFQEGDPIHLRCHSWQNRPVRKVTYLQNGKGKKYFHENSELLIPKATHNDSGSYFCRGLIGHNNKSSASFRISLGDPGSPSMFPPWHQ


Assays:
Assay in all cases: SPR
human FcγRIIb [1] = biological target: T1, human FcγRIIb
human FcγRIa = biological target: T2, human FcγRIa
human FcγRIIb [2] = biological target: T1, human FcγRIIb
human FcγRIIb [3] = biological target: T1, human FcγRIIb
mouse FcγRI = biological target: T3, mouse FcγRI
mouse FcγRIV = biological target: T4, mouse FcγRIV

Row | Binder | Kd (human FcγRIa) | binding result (mouse FcγRI) | binding result (mouse FcγRIV) | further results
1 | BP464 (antibody) chain 1: QVQLQESGPGLVKPSETLSLTCAVSGHSISHDHAWSWVRQPPGEGLEWIGFISYSGITNYNPSLQGRVTISRDNSKNTLYLQMNSLRAEDTAVYYCARSLARTTAMDYWGEGTLVTVSSASTKGPSVFPLAPSSKSTSGGTAALGCLVKDYFPEPVTVSWNSGALTSGVHTFPAVLQSSGLYSLSSVVTVPSSSLGTQTYICNVNHKPSNTKVDKKVEPKSCDKTHTCPPCPAPDLLGDDSVFLFPPKPKDTLMISRTPEVTCVVVDVAEEDGEVKFNWYVDGVEVHNAKTKPREEQYNSTYRVVSVLTVLHQDWLNGKEYKCKVSNKALPRPIEKTISKAKGQPREPQVYTLPPSRDELTKNQVSLTCLVKGFYPSDIAVEWESNGQPENNYKTTPYVLDSDGSFFLYSKLTVDKSRWQQGNVFSCSVMHEALHNHYTQESLSLSP chain 2: not shown |  |  |  | Kd (human FcγRIIb [1]): 4 nM
2 | BP084 (antibody) chain 1: QVQLQESGPGLVKPSETLSLTCAVSGHSISHDHAWSWVRQPPGEGLEWIGFISYSGITNYNPSLQGRVTISRDNSKNTLYLQMNSLRAEDTAVYYCARSLARTTAMDYWGEGTLVTVSSASTKGPSVFPLAPSSKSTSGGTAALGCLVKDYFPEPVTVSWNSGALTSGVHTFPAVLQSSGLYSLSSVVTVPSSSLGTQTYICNVNHKPSNTKVDKKVEPKSCDKTHTCPPCPAPELLGGDSVFLFPPKPKDTLMISRTPEVTCVVVDVSHEDPEVKFNWYVDGVEVHNAKTKPREEQYNSTYRVVSVLTVLHQDWLNGKEYKCKMSNKALPKPIEKTISKAKGQPREPQVYTLPPSRDELTKNQVSLTCLVKGFYPSDIAVEWESNGQPENNYKTTPPVLDSDGSFFLYSKLTVDKSRWQQGNVFSCSVMHEALHNHYTQESLSLSP chain 2: not shown | 7 nM |  |  | Kd (human FcγRIIb [2]): 500 nM
3 | 2B261 (antibody) chain 1: QVQLQESGPGLVKPSETLSLTCAVSGHSISHDHAWSWVRQPPGEGLEWIGFISYSGITNYNPSLQGRVTISRDNSKNTLYLQMNSLRAEDTAVYYCARSLARTTAMDYWGEGTLVTVSSASTKGPSVFPLAPSSKSTSGGTAALGCLVKDYFPEPVTVSWNSGALTSGVHTFPAVLQSSGLYSLSSVVTVPSSSLGTQTYICNVNHKPSNTKVDKKVEPKSCDKTHTCPPCPAPDLLGGDSVFLFPPKPKDTLMISRTPEVTCVVVDVSHEDPEVKFNWYVDGVEVHNAKTKPREEQDNSTYRVVSVLTVLHQDWLNGKEYKCKVSNKALPAPIEKTISKAKGQPREPQVYTLPPSRDELTKNQVSLTCLVKGFYPSDIAVEWESNGQPENNYKTTPPVLDSDGSFFLYSKLTVDKSRWQQGNVFSCSVMHEALHNHYTQESLSLSP chain 2: not shown | 9 nM |  |  | Kd (human FcγRIIb [2]): 1000 nM
4 | BP350 (antibody) chain 1: QVQLQESGPGLVKPSETLSLTCAVSGHSISHDHAWSWVRQPPGEGLEWIGFISYSGITNYNPSLQGRVTISRDNSKNTLYLQMNSLRAEDTAVYYCARSLARTTAMDYWGEGTLVTVSSASTKGPSVFPLAPSSKSTSGGTAALGCLVKDYFPEPVTVSWNSGALTSGVHTFPAVLQSSGLYSLSSVVTVPSSSLGTQTYICNVNHKPSNTKVDKKVEPKSCDKTHTCPPCPAPDLLGDDSVFLFPPKPKDTLMISRTPEVTCVVVDVEEEDGEVKFNWYVDGVEVHNAKTKPREEQYNSTYRVVSVLTVLHQDWLNGKEYKCKVSNKALPAPIEKTISKAKGQPREPQVYTLPPSRDELTKNQVSLTCLVKGFYPSDIAVEWESNGQPENNYKTTPPVLDSDGSFFLYSKLTVDKSRWQQGNVFSCSVMHEALHNHYTQESLSLSP chain 2: not shown |  |  |  | Kd (human FcγRIIb [3]): 100 nM
5 | BP367 (antibody) chain 1: QVQLQESGPGLVKPSETLSLTCAVSGHSISHDHAWSWVRQPPGEGLEWIGFISYSGITNYNPSLQGRVTISRDNSKNTLYLQMNSLRAEDTAVYYCARSLARTTAMDYWGEGTLVTVSSASTKGPSVFPLAPSSKSTSGGTAALGCLVKDYFPEPVTVSWNSGALTSGVHTFPAVLQSSGLYSLSSVVTVPSSSLGTQTYICNVNHKPSNTKVDKKVEPKSCDKTHTCPPCPAPDLLGDDSVFLFPPKPKDTLMISRTPEVTCVVVDVSEDDGEVKFNWYVDGVEVHNAKTKPREEQYNSTYRVVSVLTVLHQDWLNGKEYKCKVSNKALPAPIEKTISKAKGQPREPQVYTLPPSRDELTKNQVSLTCLVKGFYPSDIAVEWESNGQPENNYKTTPPVLDSDGSFFLYSKLTVDKSRWQQGNVFSCSVMHEALHNHYTQESLSLSP chain 2: not shown |  |  |  | Kd (human FcγRIIb [3]): 100 nM
6 | BP455 (antibody) chain 1: QVQLQESGPGLVKPSETLSLTCAVSGHSISHDHAWSWVRQPPGEGLEWIGFISYSGITNYNPSLQGRVTISRDNSKNTLYLQMNSLRAEDTAVYYCARSLARTTAMDYWGEGTLVTVSSASTKGPSVFPLAPSSKSTSGGTAALGCLVKDYFPEPVTVSWNSGALTSGVHTFPAVLQSSGLYSLSSVVTVPSSSLGTQTYICNVNHKPSNTKVDKKVEPKSCDKTHTCPPCPAPDLLGDDSVFLFPPKPKDTLMISRTPEVTCVVVDVAEEDGEVKFNWYVDGVEVHNAKTKPREEQYNSTYRVVSVLTVLHQDWLNGKEYKCKVSNKALPRPIEKTISKAKGQPREPQVYTLPPSRDELTKNQVSLTCLVKGFYPSDIAVEWESNGQPENNYKTTPLVLDSDGSFFLYSKLTVDKSRWQQGNVFSCSVMHEALHNHYTQESLSLSP chain 2: not shown |  |  |  | Kd (human FcγRIIb [1]): 4 nM
7 | BP182 (antibody) chain 1: QVQLQESGPGLVKPSETLSLTCAVSGHSISHDHAWSWVRQPPGEGLEWIGFISYSGITNYNPSLQGRVTISRDNSKNTLYLQMNSLRAEDTAVYYCARSLARTTAMDYWGEGTLVTVSSASTKGPSVFPLAPSSKSTSGGTAALGCLVKDYFPEPVTVSWNSGALTSGVHTFPAVLQSSGLYSLSSVVTVPSSSLGTQTYICNVNHKPSNTKVDKKVEPKSCDKTHTCPPCPAPDLLGGDSVFLFPPKPKDTLMISRTPEVTCVVVDVSHEDGEVKFNWYVDGVEVHNAKTKPREEQDNSTYRVVSVLTVLHQDWLNGKEYKCKVSNKALPKPIEKTISKAKGQPREPQVYTLPPSRDELTKNQVSLTCLVKGFYPSDIAVEWESNGQPENNYKTTPPVLDSDGSFFLYSKLTVDKSRWQQGNVFSCSVMHEALHNHYTQESLSLSP chain 2: not shown | 10 nM |  |  | 
8 | VH3/L(WT)-mIgG1-mF44 (antibody) chain 1: QVQLQESGPGLVKPSETLSLTCAVSGHSISHDHAWSWVRQPPGEGLEWIGFISYSGITNYNPSLQGRVTISRDNSKNTLYLQMNSLRAEDTAVYYCARSLARTTAMDYWGEGTLVTVSSAKTTPPSVYPLAPGSAAQTNSMVTLGCLVKGYFPEPVTVTWNSGSLSSGVHTFPAVLQSDLYTLSSSVTVPSSTWPSETVTCNVAHPASSTKVDKKIVPRDCGCKPCICTVPEVSSVFIFPPKPKDVLTITLTPKVTCVVVDISKDDPEVQFSWFVDDVEVHTAQTQPREEQFNSTFRSVSELPIMHQDWLNGKEFKCRVNSADFPAPIEKTISKTKGRPKAPQVYTIPPPKEQMAKDKVSLTCMITDFFPEDITVEWQWNGQPAENYKNTQPIMDTDGSYFVYSKLNVQKSNWEAGNTFTCSVLHEGLHNHHTEKSLSHSPGK chain 2: not shown |  | no binding | no binding | 
9 | VH3/L(WT)-mIgG1-mF46 (antibody) chain 1: QVQLQESGPGLVKPSETLSLTCAVSGHSISHDHAWSWVRQPPGEGLEWIGFISYSGITNYNPSLQGRVTISRDNSKNTLYLQMNSLRAEDTAVYYCARSLARTTAMDYWGEGTLVTVSSAKTTPPSVYPLAPGSAAQTNSMVTLGCLVKGYFPEPVTVTWNSGSLSSGVHTFPAVLQSDLYTLSSSVTVPSSTWPSETVTCNVAHPASSTKVDKKIVPRDCGCKPCICTVPEVSDVFIFPPKPKDVLTITLTPKVTCVVVDISKDDPEVQFSWFVDDVEVHTAQTQPREEQFNSTFRSVSELPIMHQDWLNGKEFKCRVNSADFPAPIEKTISKTKGRPKAPQVYTIPPPKEQMAKDKVSLTCMITDFFPEDITVEWQWNGQPAENYKNTQPIMDTDGSYFVYSKLNVQKSNWEAGNTFTCSVLHEGLHNHHTEKSLSHSPGK chain 2: not shown |  | no binding | no binding | 
10 | VH3/L(WT)-mIgG1 (antibody) chain 1: QVQLQESGPGLVKPSETLSLTCAVSGHSISHDHAWSWVRQPPGEGLEWIGFISYSGITNYNPSLQGRVTISRDNSKNTLYLQMNSLRAEDTAVYYCARSLARTTAMDYWGEGTLVTVSSAKTTPPSVYPLAPGSAAQTNSMVTLGCLVKGYFPEPVTVTWNSGSLSSGVHTFPAVLQSDLYTLSSSVTVPSSTWPSETVTCNVAHPASSTKVDKKIVPRDCGCKPCICTVPEVSSVFIFPPKPKDVLTITLTPKVTCVVVDISKDDPEVQFSWFVDDVEVHTAQTQPREEQFNSTFRSVSELPIMHQDWLNGKEFKCRVNSAAFPAPIEKTISKTKGRPKAPQVYTIPPPKEQMAKDKVSLTCMITDFFPEDITVEWQWNGQPAENYKNTQPIMDTDGSYFVYSKLNVQKSNWEAGNTFTCSVLHEGLHNHHTEKSLSHSPGK chain 2: not shown |  | no binding | no binding | 

Source: patent US20190112393 (published 2019)
